Assay results taken from FireProtDB (doi:10.1021/bi9815243).

B1: Guanyl-specific ribonuclease T1, P00651 (parent)
chain: MMYSKLLTLTTLLLPTALALPSLVERACDYTCGSNCYSSSDVSTAQAAGYQLHEDGETVGSNSYPHKYNNYEGFDFSVSSPYYEWPILSSGDVYSGGSPGADRVVFNENNQLAGVITHTGASGNNFVECT
B2: Guanyl-specific ribonuclease Sa, P05798 (parent)
chain: DVSGTVCLSALPPEATDTLNLIASDGPFPYSQDGVVFQNRESVLPTQSYGYYHEYTVITPGARTRGTRRIITGEATQEDYYTGDHYATFSLIDQTC

Variants of: B1
Settings: Aspergillus oryzae (strain ATCC 42149 / RIB 40); pH 7; 25 °C; Urea; CD; MOPS 30 mM; reversible: yes (>95%); structure 1RN1; whole UniProt chain shown

Variant | ddG of mutation (higher = less stable) [kJ/mol] | denaturant m value [kcal/mol/M] | denaturant midpoint (higher = more stable) [M] | unfolding free energy [kJ/mol]
N70S | 7.95 | 1.22 | 3.6 | 18.4
N70A | 8.37 | 1.17 | 3.51 | 17.2
N70D | 8.37 | 1.25 | 3.54 | 18.5

Same assay, conditions: Aspergillus oryzae (strain ATCC 42149 / RIB 40); pH 7; 25 °C; Urea; Fluorescence; MOPS 30 mM; transition: 2; reversible: Yes; structure 1RN1; whole UniProt chain shown

Variant | ddG of mutation (higher = less stable) [kJ/mol] | denaturant m value [kcal/mol/M] | denaturant midpoint (higher = more stable) [M] | unfolding free energy [kJ/mol]
N70S | 7.95 | 1.22 | 3.6 | 18.4
N70A | 8.37 | 1.17 | 3.51 | 17.2
N70D | 8.37 | 1.25 | 3.54 | 18.5

Same assay, conditions: Aspergillus oryzae (strain ATCC 42149 / RIB 40); pH 7; 50.8 °C; Thermal; CD; MOPS 30 mM; reversible: yes (>95%); structure 1RN1; whole UniProt chain shown

Variant | ddG of mutation (higher = less stable) [kJ/mol]
N70S | 6.28
N70A | 6.69
N70D | 6.69

Same assay, conditions: Aspergillus oryzae (strain ATCC 42149 / RIB 40); pH 7; Thermal; CD; MOPS 30 mM; reversible: yes (>95%); structure 1RN1; whole UniProt chain shown

Variant | Tm [°C] | change of melting temperature, mutant - wild type (higher = more stable) [°C] | unfolding enthalpy (van 't Hoff) [kJ/mol]
N70S | 45.8 | -5 | 375
N70A | 45.6 | -5.2 | 363
N70D | 45.3 | -5.5 | 352

Same assay, conditions: Aspergillus oryzae (strain ATCC 42149 / RIB 40); pH 7; Thermal; CD; MOPS 30 mM; transition: 2; reversible: Yes; structure 1RN1; whole UniProt chain shown

Variant | Tm [°C] | change of melting temperature, mutant - wild type (higher = more stable) [°C] | unfolding enthalpy (van 't Hoff) [kJ/mol]
N70S | 45.8 | -5 | 375
N70A | 45.6 | -5.2 | 363

Same assay, conditions: Aspergillus oryzae (strain ATCC 42149 / RIB 40); pH 2.7; 25 °C; Urea; CD; glycine 30 mM; reversible: yes (>95%); structure 1RN1; whole UniProt chain shown

Variant | ddG of mutation (higher = less stable) [kJ/mol] | denaturant m value [kcal/mol/M] | denaturant midpoint (higher = more stable) [M] | unfolding free energy [kJ/mol]
N70D | 2.09 | 1.66 | 3.45 | 23.9

Same assay, conditions: Aspergillus oryzae (strain ATCC 42149 / RIB 40); pH 2.7; 25 °C; Urea; Fluorescence; glycine 30 mM; transition: 2; reversible: Yes; structure 1RN1; whole UniProt chain shown

Variant | denaturant m value [kcal/mol/M] | denaturant midpoint (higher = more stable) [M] | unfolding free energy [kJ/mol]
N70D | 1.66 | 3.45 | 23.9

Variants of: B2
Settings: Kitasatospora aureofaciens; pH 7; 48.4 °C; Thermal; CD; MOPS 30 mM; reversible: yes (>95%); structure 1RGG; whole UniProt chain shown

Variant | ddG of mutation (higher = less stable) [kJ/mol]
N39A | 9.2
N39D | 6.28
N39S | 9.62

Same assay, conditions: Kitasatospora aureofaciens; pH 7; Thermal; CD; MOPS 30 mM; reversible: yes (>95%); structure 1RGG; whole UniProt chain shown

Variant | Tm [°C] | change of melting temperature, mutant - wild type (higher = more stable) [°C] | unfolding enthalpy (van 't Hoff) [kJ/mol]
N39A | 40.8 | -7.6 | 295
N39D | 43.2 | -5.2 | 349
N39S | 40.4 | -8 | 308

Same assay, conditions: Kitasatospora aureofaciens; pH 7; Thermal; CD; MOPS 30 mM; transition: 2; reversible: Yes; structure 1RGG; whole UniProt chain shown

Variant | Tm [°C] | change of melting temperature, mutant - wild type (higher = more stable) [°C] | unfolding enthalpy (van 't Hoff) [kJ/mol]
N39A | 40.8 | -7.6 | 295
N39D | 43.2 | -5.2 | 349
N39S | 40.4 | -8 | 308

Same assay, conditions: Kitasatospora aureofaciens; pH 2; Thermal; CD; MOPS 30 mM; transition: 2; reversible: Yes; structure 1RGG; whole UniProt chain shown

Variant | Tm [°C] | change of melting temperature, mutant - wild type (higher = more stable) [°C] | unfolding enthalpy (van 't Hoff) [kJ/mol]
N39D | 23.3 | -4.7 | 210
